{"source": "patent US20060253917A1", "about": "(published 2006)", "note": "Ends that are not written are not given here.", "data": [{"molecular_target": "T1, OsCHIB1 aa 10-200 (Oryza sativa)", "T1 construct": "bait, Gal4 DBD fusion; also called PN19651; O. sativa Chitinase, Class III", "T1 chain": "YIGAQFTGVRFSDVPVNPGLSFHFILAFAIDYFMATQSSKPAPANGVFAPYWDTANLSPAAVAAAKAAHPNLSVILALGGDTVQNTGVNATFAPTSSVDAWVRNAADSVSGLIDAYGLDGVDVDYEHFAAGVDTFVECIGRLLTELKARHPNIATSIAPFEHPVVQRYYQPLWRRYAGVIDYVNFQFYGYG", "test": "Y2H; input trait library", "summary_of_the_method": "(§1)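 Protein-protein interactions were detected with an automated, high-throughput yeast two-hybrid assay provided by Myriad Genetics Inc. (Salt Lake City, Utah). A bait clone encoding a defined amino-acid fragment of a rice protein was screened against a rice prey library, either the input trait or the output trait library. Prey clones were retrieved, and their encoding sequences were compared by BLAST against databases to identify the interacting proteins.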", "values": [{"binder": "OsPN29041 aa 5-108 (other, prey, AD fusion; also called Novel Protein PN29041, Fragment, Similar to A. thaliana Putative ATPase) VQIRRALRALVDDHTDGLMDFEDTEVRSSEETDALEEARLAIEQVVIPKGESVQLLPRPPSIIASQVDLVESFKLKWESIGQEPNACLRILPQFVGVEEGGKSV", "binding result": "binds"}, {"binder": "OsPN22823 aa 25-106 (other, prey, AD fusion; also called Novel Protein PN22823, Similar to ABC Transporter Proteins) SSSGKKVPLFSLFRYADRLDVLLMVVGTVGALGNGISQPLMTVLFGNVINSFGANTSGSVLRSVTKVKVSCWTMAGERQSAR", "binding result": "binds"}, {"binder": "OsPN22020 aa 76-170 (other, prey, AD fusion; also called Novel Protein PN22020, Fragment, Similar to A. thaliana Putative Protein) ANATDGVKPLVGSARLPLRDVLADTGIGARASRSLRLKRPSGRPHGRLEVRVAVREPKRYYDPSPAYPAPYHQQTNRDPYAYGNTTTGGYGYAYG", "binding result": "binds"}, {"binder": "AVREPKRYYDPSPAYPAPYHQQTNRDPYAYGNTTTGGYGYAYG (other, not fully specified, prey, AD fusion)", "note": "[OsPN22020 aa 128-170]", "binding result": "binds"}]}, {"molecular_target": "T2, OsPP2A-2 aa 1-308 (Oryza sativa, UniProt A2XN40 1-307)", "T2 construct": "bait, Gal4 DBD fusion; also called PN20254; O. sativa Serine/Threonine Protein Phosphatase PP2A-2, Catalytic Subunit", "T2 sequence (A2XN40 whole entry, the tested form may be a part)": "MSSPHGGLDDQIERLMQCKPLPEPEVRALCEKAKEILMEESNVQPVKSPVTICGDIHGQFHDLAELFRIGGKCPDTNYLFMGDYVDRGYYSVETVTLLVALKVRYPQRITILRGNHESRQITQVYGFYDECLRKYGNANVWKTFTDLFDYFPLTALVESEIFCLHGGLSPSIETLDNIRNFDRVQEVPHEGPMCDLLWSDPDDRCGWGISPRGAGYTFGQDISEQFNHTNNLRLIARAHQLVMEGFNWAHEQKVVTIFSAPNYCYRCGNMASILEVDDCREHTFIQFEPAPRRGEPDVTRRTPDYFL", "test": "Y2H; input trait library", "summary_of_the_method": "as §1", "values": [{"binder": "OsORF020300-2233.2 aa 93-387 (other, prey, AD fusion; also called PN21639; Hypothetical Protein ORF020300-2233.2, Putative PP2A Regulatory Subunit, Similar to OsCAA90866) LLVPYYLGEMTERVAQEDRIPVLKASQDHLKEFISICEALELISEDELELSRQKQPDTMANRRAQKAARFKRQKAAETKLLEIKERKERRRRSLRAAALSAPIEAGEEDAFEDDGEEEREAWLATISLALCKAFDLLDMLKKEEEMLLAVKERQAKDGNAFAREMLDERTKKAEAWHHNAANRAPYSKPADPITCATFAQDVIEGRASVSQAHEHKHQPLIFGPASLVGGGLTSERERMAAQVFQPSYRLPTMSIEEAGLREMKMMEKWQERTAKMIQESNSAWHKDGSRSAQED", "binding result": "binds"}, {"binder": "OsAAK63900 aa 122-224 (other, prey, AD fusion; also called PN23266; O. sativa Putative Proline-Rich Protein AAK63900) AAVAGKTHYRSALCASVTICGPIKKKIIDHFHKKPVPPKPEPKPEPPKPKPEPEHPFLDHIHKKEKHFFDHFHKKPVPPKPEPKPEPKPQPAPEYHNPSPPAN", "binding result": "binds"}, {"binder": "OsORF020300-2233.2 aa 118-388 (other, prey, AD fusion; also called PN21639) SQDHLKEFISICEALELISEDELELSRQKQPDTMANRRAQKAARFKRQKAAETKLLEIKERKERRRRSLRAAALSAPIEAGEEDAFEDDGEEEREAWLATISLALCKAFDLLDMLKKEEEMLLAVKERQAKDGNAFAREMLDERTKKAEAWHHNAANRAPYSKPADPITCATFAQDVIEGRASVSQAHEHKHQPLIFGPASLVGGGLTSERERMAAQVFQPSYRLPTMSIEEAGLREMKMMEKWQERTAKMIQESNSAWHKDGSRSAQEDE", "binding result": "binds"}, {"binder": "OsPN23268 aa 12-200 (other, prey, AD fusion; also called Novel Protein 23268, Similar to Phosphoribosylanthranilate Transferase, Chloroplast Precursor, Fragment) SEEEAEATLRLLLEEENEARIAAFLVLLRAKGETYEEIVGLAKAMIGCCVRVDGLDDAVDIVGTGGDGADTVNISTGSTILAAAAGAKVAKQGSRASSSACGSADGIKRCVNEVGVGFMMSANYHPAMKIVKPVRKKLKIKTVFNILGPLLNPARVPYAVIGVYHENIVTKMAKAAQKFGMKRALVVHS", "binding result": "binds"}, {"binder": "OsPN26645 aa 24-164 (other, prey, AD fusion; also called Novel Protein PN26645, Putative Protein Disulfide Isomerase-Related Protein Precursor) PLPEACPVPTAAEEILGPGGTCTTLDRRGDPVGVIEGDEVTLAKAITLLHMNKDDYIAVLFYASWCPFSQECKPNFEILASLFPSIRHFAFEESSIRPSIISRYGIHGFPTLFLLNSTMRVRYHGPRTVKSLAAFYRDVSG", "binding result": "binds"}]}, {"molecular_target": "T3, OsE2F1 aa 100-250 (Oryza sativa)", "T3 construct": "bait, Gal4 DBD fusion; also called PN19758; O. sativa E2F Homolog", "T3 sequence (chain, as listed by the source)": "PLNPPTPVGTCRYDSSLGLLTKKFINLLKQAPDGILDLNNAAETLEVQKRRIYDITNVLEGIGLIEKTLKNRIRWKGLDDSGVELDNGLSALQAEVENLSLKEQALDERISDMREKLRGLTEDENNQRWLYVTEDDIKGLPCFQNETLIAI", "test": "Y2H; output trait library", "summary_of_the_method": "as §1", "values": [{"binder": "OsPN26539 aa 82-253 (other, prey, AD fusion) GPGTRATGPDKGGRGLRQFSMKVCEKVESKGRTTYNEVADELVAEFADPNNNFASPDPDNPNTPQFDEKNIRRRVYDALNVLMAMDIISKDKKEIQWKGLPRTSMSDVEELKTEIIGLKGRIDKKNAYLQELEDQFVGLQNLAQRNEQLYGSGNAPSGGVALPFILVQTRPH", "binding result": "binds"}, {"binder": "OsPN26539 aa 194-346 (other, prey, AD fusion) TEIIGLKGRIDKKNAYLQELEDQFVGLQNLAQRNEQLYGSGNAPSGGVALPFILVQTRPHATVEVEISEDMQLVHFDFNSTPFELHDDSFVLKALGFSGKEPDDTQAWVGNGGECSTTPIYHQSPQVARPNGVRLPTSPPIPGILKGRVKHEH", "binding result": "binds"}, {"binder": "OsPN26539 aa 66-346 (other, prey, AD fusion; also called Novel Protein PN26539, Probable DP) DDAPSSQPATSKKKKRGPGTRATGPDKGGRGLRQFSMKVCEKVESKGRTTYNEVADELVAEFADPNNNFASPDPDNPNTPQFDEKNIRRRVYDALNVLMAMDIISKDKKEIQWKGLPRTSMSDVEELKTEIIGLKGRIDKKNAYLQELEDQFVGLQNLAQRNEQLYGSGNAPSGGVALPFILVQTRPHATVEVEISEDMQLVHFDFNSTPFELHDDSFVLKALGFSGKEPDDTQAWVGNGGECSTTPIYHQSPQVARPNGVRLPTSPPIPGILKGRVKHEH", "binding result": "binds"}, {"binder": "RFEATTKSKLASLNEKLDILERKLEVLEVQVSSATTNPSVFN (other, not fully specified, prey, AD fusion; also called Novel Protein PN30852)", "note": "[OsPN30852 aa 45-86]", "binding result": "binds"}]}, {"molecular_target": "T4, OsS49462 aa 1-100 (Oryza sativa, UniProt Q01J96 179-278)", "T4 construct": "bait, Gal4 DBD fusion; also called PN20325; O. sativa Cyclin OsS49462, Fragment", "T4 sequence": "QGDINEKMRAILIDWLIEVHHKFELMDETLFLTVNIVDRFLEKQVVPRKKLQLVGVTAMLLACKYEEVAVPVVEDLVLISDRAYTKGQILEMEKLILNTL", "test": "Y2H; output trait library", "summary_of_the_method": "as §1", "values": [{"binder": "OsPN29957 aa 51-288 (other, prey, AD fusion; also called Novel Protein PN29957, Fragment, unknown) PRVLALTVKQSTKGEAAKAFLRVLKYSSGAVLEPAKLYKLKHLTKVEVISNDPSGCTFVLGFDNLRSQSVAPPQWTMRNIDDRNRLLFSILTMCKEILSYLPKVVGIDFVELALWAKENTVTLDNQSSTQDGQEKSVTTQTERKVTVTVENDLGSQAKDEEEDMEALLDTYVMGIGEADAFSERLKQELVALEAANVYQLLQSEPLIDEVLQGLDAASATVDDMDEWLRIFNMKLRHM", "binding result": "binds"}, {"binder": "OsPN29957 aa 28-214 (other, prey, AD fusion) EVSFSIRVAKGRGIFEKLGRLAKPRVLALTVKQSTKGEAAKAFLRVLKYSSGAVLEPAKLYKLKHLTKVEVISNDPSGCTFVLGFDNLRSQSVAPPQWTMRNIDDRNRLLFSILTMCKEILSYLPKVVGIDFVELALWAKENTVTLDNQSSTQDGQEKSVTTQTERKVTVTVENDLGSQAKDEEEDM", "binding result": "binds"}, {"binder": "OsPN29942 aa 11-182 (other, prey, AD fusion; also called Novel Protein PN29942, Fragment, zinc finger protein) VDTSNEIKEIVIDDMEPKVFQAGFLFMYRDNLVGDDELSASSSDCSIFDTLAGKLLAAADRYELPRLRLLCESYLCKHISVNSVATTLALADRHHAMELKSVCLKFAAENLSAVIRTDGFDYLKDNCPALQSEILRTVAGCEEECSSGGKSQSVWGQLSDGGDTSGRRVRPR", "binding result": "binds"}, {"binder": "OsPN23484 aa 111-194 (other, prey, AD fusion; also called Novel Protein PN23484, heavy meromyosin) GREDREREVQEELASLSDLAASYHSRLQSHGIDPDSFSDDGEEEQHDEEDGEEVEQIDTAALQTDGSSGGDSIGGMQVKAMVDD", "binding result": "binds"}, {"binder": "PN25358 aa 303-472 (other, prey, AD fusion; also called Hypothetical Protein AAK39589) VSASEFYSQSAIYVAAAHALKPNYSVYRSALRLVRSMLPLPYLKVGYLIAPPENSAIAPHKEWERSQFVLNHEELQQVNASDQPPSQSPGHVDSGRKLFRIVVADIVSVSACADLTLPPGAGLRIDTIHGPRFLVADNWETIDSWLDAIRLVYTIFARGRSDVLAGIITG", "binding result": "binds"}]}, {"molecular_target": "T5, OsRAP1B aa 30-180 (Oryza sativa, UniProt Q10CQ1 30-180)", "T5 construct": "bait, Gal4 DBD fusion; also called PN20232", "T5 sequence": "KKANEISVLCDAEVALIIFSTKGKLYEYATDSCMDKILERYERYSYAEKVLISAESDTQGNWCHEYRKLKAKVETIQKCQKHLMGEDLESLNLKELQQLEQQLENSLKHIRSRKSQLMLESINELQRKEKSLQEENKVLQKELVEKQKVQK", "test": "Y2H; output trait library", "summary_of_the_method": "as §1", "values": [{"binder": "OsMADS8 aa 109-248 (other, prey, AD fusion; also called PN20778) RTQRNLLGEDLGTLGIKELEQLEKQLDSSLRHIRSTRTQHMLDQLTDLQRREQMLCEANKCLRRKLEESNQLHGQVWEHGATLLGYERQSPHAVQQVPPHGGNGFFHSLEAAAEPTLQIGFTPEQMNNSCVTAFMPTWLP", "binding result": "binds"}]}, {"molecular_target": "T6, OsCAA90866 aa 100-250 (Oryza sativa)", "T6 construct": "bait, Gal4 DBD fusion; also called PN20311; O. sativa Chilling-Inducible Protein CAA90866", "T6 chain": "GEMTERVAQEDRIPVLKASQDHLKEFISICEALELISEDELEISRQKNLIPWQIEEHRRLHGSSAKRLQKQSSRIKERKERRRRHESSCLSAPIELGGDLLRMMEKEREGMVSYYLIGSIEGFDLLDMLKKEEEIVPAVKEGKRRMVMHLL", "test": "Y2H; output trait library", "values": [{"binder": "OsORF020300-2233.2 aa 1-206 (other, prey, AD fusion; also called PN21639) MVEVEEVSNKMQAQMRLHPAAAAEEEDADLPLPALFDKASHLHSLASSSSLDQEGIRKGVDLLRRCDEMVSKLGLFSSNETKDDVSTANLKYLLVPYYLGEMTERVAQEDRIPVLKASQDHLKEFISICEALELISEDELELSRQKQPDTMANRRAQKAARFKRQKAAETKLLEIKERKERRRRSLRAAALSAPIEAGEEDAFEDD", "binding result": "binds"}, {"binder": "OsCAA90866 aa 1-126 (other, prey, AD fusion; also called PN20311) MVEVEEVSNKMQVQMRLHPAAAAEEEDADLPLPALFDKASHLHSLASSSSLDQEGIRKGVDLLRRCDEMVSKVGLFSSNETKDDISTANLKYLLVPYYLGEMTERVAQEDRIPVLKASQDHLKEFI", "binding result": "binds"}, {"binder": "OsPN29883 aa 58-175 (other, prey, AD fusion; also called Novel Protein PN29883, Fragment) YGQLKAAQPFFLLAGPNVIESEEHVLKMAKHIKGITTKLGLPLVFKSSFDKANRTSSKSFRGPGLEEGLKILEKVKATYDIPVVTDVHESHQCEAAGRVADIIQIPAFFCRQTDLLVA", "binding result": "binds"}, {"binder": "OsORF020300-2233.2 aa 1-190 (other, prey, AD fusion; also called PN21639) MVEVEEVSNKMQAQMRLHPAAAAEEEDADLPLPALFDKASHLHSLASSSSLDQEGIRKGVDLLRRCDEMVSKLGLFSSNETKDDVSTANLKYLLVPYYLGEMTERVAQEDRIPVLKASQDHLKEFISICEALELISEDELELSRQKQPDTMANRRAQKAARFKRQKAAETKLLEIKERKERRRRSLRAAA", "binding result": "binds"}]}]}
